Experiment: soluble on expression in E. coli; label from the status in PepcDB or PDB records
For “MSELSFAQLLEESFAATPRLGDVVKGTVVAIQKGYVIVDTGFKSESSIPAEEFINAQGELEVQIGDQVDVVLKAVEDGFGETVVSRGDAKRNEAWIALEKAFEEQATVIGFVNGKVKGGFTVELNGVRAFLPGSLVDTRPVRDSLNLEGKELEFKVIKLDQKRNNVVVSRRAVIESENSQDRDEVLANLVEGSVITGTVKNLTDYGAFVDLGGVDGLLHITDMAWKRVKHPSEVVAVGQEVTVKVLKFDKEKTRVSLGLKQLGQDPWAAIAHNHPVNSKLTGKVTNLTDYGCFVEILDGVEGLVHVSEMDWTNKNIHPSKVVSVGDVVEVMVLEVDEERRRISLGLKQCKANPWEHFAATHNKNDKVTGKIKSITDFGIFIGLEGGIDGLVHLSDISWNVTGEEAVRNYKKGDEVEAVVLQVDAAKERISLGIKQLESDPFTNFVDSTKKGAILTGKVVDVDTKGVKVELEGGVEAFIRANEATRERVEDITTVISVGDSIEAKYTGIDRKSRLVNLSVRAKDEAEESAALAQVNKQDVEMPNAMTAAFQAAKGELEHHHHHH”, the “soluble on expression in E. coli” value was “soluble”. For “MTGFAPQAGLPSHSVQVADHFDGNSPRGSPMSSGGHPVDRNRGLQPQKEAFSGPAAGKPFHPQALSKYSRHYSPEDELSAEAQPIAAYKIVSQSNKQLLAGSVSVTSLSSRTTELATADPFALAPFPSKAGKQKP”, the “soluble on expression in E. coli” value was “soluble”. For “MAHHHHHHMRPHTPAKVATTASDGATTTKTTSHPVLLGCGLNWASFVASHPFEVKELTSVLVGDGSDDDGVPEERDALVQAQLPVASVVTSGATLERVFTEAMVCASARAEVARKVQHIATVWCLHPSSEYVATLCWPMEGGESASTTTAVLKVQTEGGRAPLDLRAVSLHVVDRGSLVFHPEFTRCILAQGAERFMYYVPPNPLEATTALPFMRGLWYNGLFSLLELLRIGPQHVVMLFVLPNGDTRYTLDLAPESPAVPAPSSTHQQGSGALGSAASRNATASLYPWRRQSKVRRVIRSGAYVVVVRDDTAGVVESLQRACSYHGQNKRSTWLNDIFIHLMGQCSRRDILCSADAAASQPAEADKANDVRLLCIELVEKATGEVMAGCCGMAVGCAYHDYTMYTLRQTKDGLGTFLTKLIGEALQRCGYTLWYWGFCVEYMRHFERHFGAVDMPRDVFYRRWSAARDAAPECSIDAYLRSHKGMVPYYEGTSALVKSKP”, the “soluble on expression in E. coli” value was “not soluble”. For “MIPRILGALLLCLACAAQAGVYTYIDAEGNRVYTDQPPSGRKAQRVELAPGNSVAPPGIRYRPPAAPLEVKPPAYQLLRILFPEPDATLRANSGDVIVTVTSEPALLPGHRYRLLLDGKPAGVPGRSPVFPLKNLDRGTHQVAVEIIDGDGMTVESTPSQPFHLHRVSIAGQPLPEVDTPLVSAIEPSER”, the “soluble on expression in E. coli” value was “not soluble”. For “MAQQQNPYYGTGFYQPSGTYVQPQQMTQQQQQAMQQQTAQAAQAQYAISQGMLPLEQSYIENILRLNKGKQATVVMTYERGSSLGTQSYTGIIEAAGRDHIVISEPQSGKRYLLLMIYLDYVEFPEEITYLPSQQATYTPRP”, the “soluble on expression in E. coli” value was “soluble”. With “SNAMKVKIYTRNGCPYCVWAKQWFEENNIAFDETIIDDYAQRSKFYDEMNQSGKVIFPISTVPQIFIDDEHIGGFTELKANADKILNKK” the “soluble on expression in E. coli” value was “soluble”. For “MGSDKIHHHHHHMLKIGKRNPNKPLVIENDQVVSLYFDARGVQSTMLRHDPYALALGYTRTMMGFLLFRPSPCRISMIGLGGGSLAKYCYRHLPDTAITAIEINPDVIALRDHFHVPRDDGRFTVVCADGAQYVAVPGHRPDVLLVDGFNADGLPARLGSSAFYEACRRRLSDDGVLVANLVTDEPDFHRYLRALWEVFAGAVALAPSEGSEHNVTVFAWKGAGGLPSFAAMLDRARALQARHAVNLHATATRIEYGKKFNWSRYGRTA”, the “soluble on expression in E. coli” value was “not soluble”. For “MNKAIFLDRDGTLNIDYGYVHEIDNFKFIDGVIDALRELKKMGYMLVLVTNQSGIARGYFSEDQFLQLTEWMDWSLAEQDVDLDGIYYCPHHSEGKGEYKEDCDCRKPKSGMLLQAIKELKIDPTQSIMVGDKVEDLKAGIGAKVKMNVLVRTGKPVTGEGEGIADYVLDSIVDLPRILKRLKKLEHHHHHH”, the “soluble on expression in E. coli” value was “not soluble”. In the case of “MSLSGKIRVDIPPCLANSLIMPRLPTFLHQYPGIALELCSSDRQVDLLREDFDCVVRTEPLHAPGILTRPLGKLRRVNCASPQYLARFGYPENLDDLASHAMVHYSLTPGVSSPGFAFETPHGMQWVKTGGMLTVNSTETWHTACLAGLGIIQTPRIAVREALRAGTLIEILPQYRAAPLPVTLHYPHRRNLSRRVHLFMVWLTETIKEAAEGHHHHHH”, the “soluble on expression in E. coli” value is reported as “not soluble”. With “MADHNDRGRQGEEIALKHLRQQGYQIEALNWQSGRRELDIVASTSRELVVVEVKTRTEGFLLAPEEAVDARKRRLISESAHHYVRMYAIDLPVRFDVISVVLSADGSCKRIEHRENAFPLLLKRSQRSTPRRRRL” the “soluble on expression in E. coli” value was “not soluble”. In the case of “MKPNLLPMNLQMFAEEDGGTNFTFDDFKAFVESNEEAQKFVQSQSQSAADKQLEAWKQNNLEKIKETTIKEYEESKKNKTPEQIKLEELQAEFEAEKALRVTSDNKAFVAEKIAGLDWDGDLKDSISQFMLNNLVSSDTEFTKKAVEGFTELLEAINDKHAEAIKNVEMTKAFGNKSQQTNMGTGNQTKSFENPEVALGQKLQAFID”, the “soluble on expression in E. coli” value is reported as “not soluble”. In the case of “MGSDKIHHHHHHKDAAYPRAEAQTLDLAQKAIAIRSVRGEGNRTIDVANLFRDALLKGGWQVGDIEVTPVDDTAYIIATWKGSDPSLKPVVISGHMDVVEAKREDWERDPFVPVVENGILYGRGASDMKFDGALALSTLIELRRQGFKPKRTIVIEFSGDEETTMKTSAIIAEKLKNAELVINVDGGGGTLDEATGKPLYWTWQGAEKTYADYRLEVTNPGGHSSAPRPDNAIVQLSQALVKVGAYRFKAEQNDITRGYFEKAAPFTDRPEIAAAMRAFAANPADEKALATLRADPSMVGKVGTTCVPTMLGGGHAENALPQRAFANINCRIFPGHTKEAIMAELAQVVGDPAVKISDVTEGSVASPASPLRPDLMKAVTRAMTKAYPKVPLIPSQASGASDSMWFRALGVPSYGLSPSFSKDSEDFSHGLNERTRLSNIRPGITYYLTLITDLTK”, the “soluble on expression in E. coli” value is reported as “not soluble”. For “MKTKPQAPHVDFYEKSELLHFLDCASKHENPQAFMFFRLLAFTGLRRGEALALQWSDINFETNELTVNKTQAVGKRWRTIIQTPKTNTSYRTIVLDPDTAQWLHKWKMTQARQCFELGFNANDPSQLVFTNQQNKLMSPSTVNYFNWSICKKYGLRHIKIHAFRHTFCTLAFEAHAGINEVSKTLGHADLKITEQIYLHVTKKQKNETASKLARYMSELLEHHHHHH”, the “soluble on expression in E. coli” value was “soluble”. In the case of “MGSDKIHHHHHHMKTFHNEEIYIKTDNFSDSIFKENTMFFDIETTGFSPVKAIVYMIGCARRIKNRIVIDQYFAESVDDEAAVIEAFAGSLSGCSTIISFNGVGFDIPFLKNKYKKYKQEDPFCNVQILDIFKELSPIKPLLCLENYKQKSIEAFLGIDREDKYSGGELINVYYEYLAQKDDEKLSLLLTHNYEDVLGMTKLLSILSYKECIHGIADITGVSVNPYTAYDGSLMNELIISFENKFSVPKSVSFHDNDIYLTIGTTKSYVRAEIFEGEMRHFYSDYKNYYYLPKEDMAIHKSVAAYVDHEYREKCKAYNCYVRKTGTFIRQYSDFMKPEFRFDIKDKYSYFLLTEDFINSKQMVLSYVKHITDHLFNL”, the “soluble on expression in E. coli” value is reported as “not soluble”. For “MGSDKIHHHHHHMPFQQGLLATPVPAHARHLFFTLQSPEALPAALDALLPQVDGKQLLLGVGAPLAKALGREIPGLRPFPLLDAAVENPSTQHALWLWLRGDERGDLLLRTQALEQALAPALSLADSVDGFLHRGGHDLTGYEDGTENPTDEEAVQAAIAADGSSFAAFQLWKHDLQYFKSLPQADQDNIIGRRLSDNEELDDAPASAHVKRTAQESFEPEAFMVRRSVSWADQRGAGLAFVALGKSFEAFEVQLRRMSGLEDGIIDGLYRFSRPLTGGYYWCPPMSETGVDLSPLLRA”, the “soluble on expression in E. coli” value was “not soluble”. With “MTATNDKGLQQIATIIEQHQTLPGAMLPILHAIQNDLSFIPSNALPLIAKALNVSKAEVHGVISFYHHFRTEEPGAHVIEICRGESCQAMGSRALEENIKQNLSIDYHQTSKDRQYTLEPVYCLGNCACSPAMRIGDDIHGELDLQKFEQIIASLNTYSLELK” the “soluble on expression in E. coli” value was “not soluble”. With “HVYAFDIQESAVANTKERLGDMYQARTTLFHKSHDKIAESLPPETHGKVAAAVFNLGYLPGGDKSITTNGSSTIKAIEQLLSIMKDEGLIVLVVYHGHPEGKAEKNDVLEFCRDLDQQTARVLTYGFINQQNDPPFIVAIEKKAQISK” the “soluble on expression in E. coli” value was “not soluble”. With “MFPQTTMDHILHPTPREGYYVVELNRSVWVVPNYYINLTPIGTGAYGTVCAAECTRSGTRVAIKKFNRPFQSIIHARRTYRELRLLRCMCHENIIDLLDVFTPNENVNDIEDVYFVSMLMGADLSNILKIQRLNDDHIQFLVYQILRGLKYIHSADIIHRDLKPSNIAVNEDCELKILDFGLARQTDSEMTGYVATRWYRAPEIMLNWMHYTQTVDVWSVGCILAELITGKTLFPGSDHIDQLTRIMSVTGTPDEEFLKKISSEEARNYIRNLPKMTRRDFKRLFAQATPQAIDLLEKMLHLDPDRRPTAKEAMEHEYLAAYHDETDEPIAEEMDLNDDVRADTIDEWKKIIWEEISDFQKNVAFADEEEDEEKMES” the “soluble on expression in E. coli” value was “not soluble”. For “SSVWNLGRLNHVAIAVPDLEKAAAFYKNILGAQVSEAVPLPEHGVSVVFVNLGNTKMELLHPLGLDSPIAGFLQKNKAGGMHHICIEVDNINAAVMDLKKKKIRSLSEEVKIGAHGKPVIFLHPKDCGGVLVELEQA”, the “soluble on expression in E. coli” value was “soluble”. For “MGSDKIHHHHHHMNEIRVSSWPALHEVLYGESWNPRLGRFRSPFVFRGQSRAEAKLTTTLQRLSGETREIERHLLRNFRKYAYRNGMDRDLPWYWLAVGQHHGLPTRLLDWTTSPLVALHFATAEEDHYSQDGVVWMVNFIRTNERLPAPLKALLEQEGADVFTVDMLTAFSRAHRSQQMPELGQQPSFDLSWLEDLEREAEHPFLLFLEPPSIDERIVQQAALFSLLSDPEAALDDWLVQHPGTAHKVILPADLKWEIRDKLDQSNITERTLFPGLGGLSQALRRYYRVGRDPSQQQGATAEEQAQEMERQN”, the “soluble on expression in E. coli” value was “not soluble”. With “MGSSHHHHHHSSGLVPRGSHMESAIGEHLQCPRTLTRRVPDTYTPPFPMWVGRADDALQQVVMGYLGVQFRDEDQRPAALQAMRDIVAGFDLPDGPAHHDLTHHIDNQGYENLIVVGYWKDVSSQHRWSTSTPIASWWESEDRLSDGLGFFREIVAPRAEQFETLYAFQEDLPGVGAVMDGISGEINEHGYWGSMRERFPISQTDWMQASGELRVIAGDPAVGGRVVVRGHDNIALIRSGQDWADAEADERSLYLDEILPTLQSGMDFLRDNGPAVGCYSNRFVRNIDIDGNFLDLSYNIGHWASLDQLERWSESHPTHLRIFTTFFRVAAGLSKLRLYHEVSVFDAADQLYEYINCHPGTGMLRDAVTIAEH” the “soluble on expression in E. coli” value was “soluble”. With “MRFLHTADWQLGMTRHFLNGEAQPRYSASRREAVASLGEIAKRTGAEFVVVSGDVFEHNQLAPRDVSQSLEAMRAIGVPVYLLPGNHDPLDASSVYTSALFVAERPDNVVVLDRAGVHEVRPGVQIVAAPWRSKAPTSDLIGDVLADLPADGVTRVLVGHGGVDILDPDKNKPSLIRMAAVEDALARGAVHYVALGDKHSRTEVGGSGRVWYSGSPEVTNYDDIESDPGHVLVVDIDENDARRAVRVESEKVGRWRFVTLRRSVDTDRDIADLDLNLDLLDDKERTVVRLALTGSLTVTDKAKLDECLDRYARLFAALTTWERLEHHHHHH” the “soluble on expression in E. coli” value was “not soluble”.
